Measured values taken from patent US20220041738A1 (SAITAMA MEDICAL UNIVERSITY, published 2022).
Substitutions are numbered along the chain they refer to.

T1: human ALK2(R206H)-EGFP on HEK293A cells (human, UniProt Q04771 21-509)
T1 construct: also called hALK2(R206H)-EGFP; FOP human ALK2; not shown: EGFP fused to ALK2
T1 sequence: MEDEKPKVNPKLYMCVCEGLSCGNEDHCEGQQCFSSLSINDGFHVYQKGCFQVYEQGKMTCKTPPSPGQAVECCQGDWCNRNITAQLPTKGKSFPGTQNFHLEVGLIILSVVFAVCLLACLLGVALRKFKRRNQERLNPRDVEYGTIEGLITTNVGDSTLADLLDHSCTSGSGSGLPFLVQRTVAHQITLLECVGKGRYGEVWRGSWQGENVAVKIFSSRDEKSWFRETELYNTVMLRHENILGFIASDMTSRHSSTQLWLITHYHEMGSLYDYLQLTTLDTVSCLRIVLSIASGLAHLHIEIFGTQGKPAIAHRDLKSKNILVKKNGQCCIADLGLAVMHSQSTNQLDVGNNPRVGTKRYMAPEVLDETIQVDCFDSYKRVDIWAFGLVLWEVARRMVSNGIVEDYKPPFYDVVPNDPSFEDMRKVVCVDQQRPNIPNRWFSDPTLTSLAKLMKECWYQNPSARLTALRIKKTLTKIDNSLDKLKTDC

T2: human ALK2(WT)-EGFP on cells (human, UniProt Q04771 21-509)
T2 construct: also called hALK2(WT)-EGFP; human ALK2-EGFP; not shown: EGFP fused to ALK2
T2 sequence: T1 sequence with H186R

T3: mouse ALK2(WT)-EGFP on HEK293A cells (mouse, UniProt P37172 21-509)
T3 construct: Expressed from pcDEF3/mouse ALK2(WT)-EGFP; also called mALK2(WT)-EGFP; wild-type mouse ALK2; not shown: EGFP fused to ALK2
T3 sequence: T1 sequence with M1V, P10Q, L121I, D162E, H186R, P310S

B1: rat anti-ALK2 monoclonal antibody A2-27D (antibody, V domains shown)
VH: EVQLVESGGGLVQPGRSLKLSCLASGSTFSNYGMKWIRQAPGKGLEWVASISRSSTYIYYADTVKGRFTISRDNARNTLYLQMTSLRSEDTALYYCAAAISTPFYWYFDFWGPGTVVTVSS
VL: EIVLTQSPTTMAASPGEKVTLNCLASSSVSYMTWYQQKSGASPKLWIYGTSNLASGVPNRFSGSGSGTSYSLAISSMEAEDVATYYCLHLTSYPPYTFGAGTKLELKR
notes: Rat monoclonal IgG from a hybridoma; also called 27D11
B2: rat anti-ALK2 monoclonal antibody A2-11E (antibody, V domains shown)
VH: EVQLVETGGGLVQPGRSLKLSCVASGFTFSNYYMYWIRQAPGKGLEWISSINTDGGSTYYPDSVKGRFAISRDNAENTVYLQMNSLRSEDTATYYCAKSTPNIPLAYWGQGTLVTVSS
VL: DIQMTQSPSLLSASVGDRVTLSCKASQNIYKYLNWFQQKLGEAPKLLIYYSNSLQTGIPSRFSGSGSGTDFTLTISSLQPEDVAIYFCFQYSSGPTFGPGTKLELKR
notes: Rat monoclonal IgG from a hybridoma; also called 11E2
B3: rat anti-ALK2 monoclonal antibody A2-15A (antibody, V domains shown)
VH: EVQLVESGGGLVQPGRSLKLSCAASGFTFSHYYMAWVRQAPTKGLEWVASITNSGGSINYRDSVKGRFTISRDNAKSTLYLQMDSLRSEDTATYYCTREGGENYGGYPPFAYWGQGTLVTVSS
VL: DIVLTQSPALAVSLGQRATISCRANQGVSLSRYNLMHWYQQKPGQKPKLLIYRSSNLASGIPARFSGSGSGTDFTLTINPVQADDIATYYCQQSRESPFTFGAGTKLELKR
notes: Rat monoclonal IgG from a hybridoma; also called 15A6
B4: rat anti-ALK2 monoclonal antibody A2-25C (antibody, V domains shown)
VH: EVQLVESGGGLVQPGGSLKLSCAASGFTFSYYAMSWVCQAPTKGLEWVASISRGGDNTYYRDTVKGRFTTSRDNAKNTLYLQMDSLRSEDTATYYCARLNYNNYFDYWGQGVMVTVSS
VL: DIQMTQSPASLSASLEEIVTITCQASQDIGNWLSWYQQKPGKSPQLLIYGATSLADGVPSRFSGSRSGTQYSLKISRLRVEDIGIYYCLQAYSAPFTFGSGTKLEIKR
notes: Rat monoclonal IgG from a hybridoma; also called 25C11

biological target: T1, human ALK2(R206H)-EGFP on HEK293A cells; test: flow cytometry on transfected HEK293A cells, Alexa 647 anti-rat IgG (APC-A) against EGFP (FITC-A)
Method: (§1) HEK293A cells were seeded into a 100-mm dish at 3×10⁴ cells/cm², and cultured overnight in 15% FBS-containing DMEM medium under the conditions of 5% CO₂ at 37° C. On the following day, the HEK293A cells were transfected with each of pcDEF3/mouse ALK2(WT)-EGFP, pcDEF3/human ALK2(WT)-EGFP, pcDEF3/human ALK2 (R206H)-EGFP, and pcDEF3, using Lipofectamine 2000 (Invitrogen), and further cultured overnight. On the following day, 100 μL each of the cell suspensions adjusted to 1×10⁶ cells/mL was dispensed into a 1.5-mL microfuge and centrifuged at 500 g for 5 minutes, and then the supernatant was removed. To the cells, 100 μL of purified IgG diluted to 1 μg/mL was added, and the cells were left for 30 minutes at 4° C. After the cells were washed with PBS three times, 100 μL of Alexa flour 647 Goat anti-Rat IgG (H+L) (Life Technologies) diluted to 1:200 was added, and the cells were further left for 30 minutes at 4° C. After the cells were washed with PBS three times, fluorescence was detected by a flow cytometer (FACS Aria II: BD Biosciences). The data was analyzed using BD Diva Software (BD Biosciences), and the intensity of EGFP expressed by the cells and the fluorescence intensity of stained Alexa flour 647 were plotted.

binding result	Binder
binds	B1
binds	B2
binds	B3
binds	B4

biological target: T2, human ALK2(WT)-EGFP on cells; test: as above
Method: as §1

binding result	Binder
binds	B1
binds	B2
binds	B3
binds	B4

biological target: T3, mouse ALK2(WT)-EGFP on HEK293A cells; test: as above
Method: as §1

binding result	Binder
binds	B1
binds	B2
binds	B3
binds	B4
